This is an account of results in patent US20250223376A1 (VOYAGER THERAPEUTICS, published 2025).

Values joined by “and” are separate entries in the source; they are usually repeats but may differ in a detail not shown here. Equal entries are not always repeated.

Assay [1] addresses T1, HER2 ECD (human, UniProt P04626 23-652).
T1 construct: extracellular domain; also called HER2/neu; ErbB2
Put plainly: SPR Biacore 8K, captured Ab, HER2 ECD analyte; replicate 1. For orientation: SPR reads the build-up and loss of mass on a sensor chip optically.

Assay [2] addresses T1, HER2 ECD. Put plainly: SPR Biacore 8K, captured Ab, HER2 ECD analyte; printed mean.
Assay [3] has as its target T1, HER2 ECD. Put plainly: SPR Biacore 8K, captured Ab, HER2 ECD analyte; replicate 2.

As usually defined, the Kd is a measure of binding affinity in units of concentration. Broadly, the koff is the first-order rate constant of dissociation. The low end stands for a long-lived complex, the high end for a short-lived complex. In general, kon refers to the rate constant with which the complex forms.

B1: HER-78 anti-HER2 bispecific antibody molecule (bispecific antibody)
chain 1: QVQLVQSGAEVKKPGASVKVSCKASGYSFTGYFINWVREAPGQGLEWMGHISSSYATSTYNQKFQGRVTFTVDTSSSTAYMELSSLRSEDTAVYYCVRSGNYEEYAMDYWGQGTLVTVSS
chain 2: not shown
On to B1, for which, in assay [1], the Kd was 0.54 nM and 0.544 nM; the koff amounted to 7.53e-05 s⁻¹; the kon stood at 138000 M⁻¹ s⁻¹. Besides, in assay [2], the Kd was 0.44 nM and 0.436 nM; the koff came out at 7.28e-05 s⁻¹; the kon is 164000 M⁻¹ s⁻¹. In assay [3], this molecule yielded a Kd of 0.57 nM, a koff of 9.89e-05 s⁻¹ and a kon of 174000 M⁻¹ s⁻¹.
